From patent publication US20240417446A1 (US Dept. of Health and Human Services, published 2024)

B1: NCI-CoV-S3A10 (VNAR)
VNAR: ARVDQTPRSVTKETGESLTINCVLRDASYALGSTCWYRKKSGSTNEESISKGGRYVETVNSGSKSFSLRINDLTVEDGGTYRCGRIQNTKAVLLPCVYAACGDGTVVTVN
B2: NCI-CoV-CGH3 (VHH)
VHH: AVQLVESGGGLVQPGGSLRLSCAASGFTFSSYAMGWVRQAPGKGLEWISAINSGGDIRYYADSVKGRFTISRDNAKNTLYLQMNSLKPEDTAVYYCATDDEILSYGLGTSFDYWGQGTQVTVSS
B3: NCI-CoV-S2G8 (VNAR)
VNAR: ARVDQTPQTITKETGESLTINCVLRDSNCPLSNTYWYRKKSGSTNEESISKGGRYVETVNSGSKSFSLRINDLTVEDSGTYRCKVRTHWSICWEMGLEPNYDVYGGGTVVTVN
B4: NCI-CoV-CLA2 (VHH)
VHH: QVQLVESGGGSVQPGGSLRLSCAVSGYTSSSYCFGWFRQAPGKDREGIIAMEPGNTYTAGAVKGRFTISRDNAKNMVYLQMNSLKPDDTAMYYCAASPYPGTWLNPDLFDTWGQGTQVTVSS
B5: NCI-CoV-CG2G2 (VHH)
VHH: AVQLVESGGGSVPPGGSLTLSCTVSDNIFRTYAVGWFRQAPEKRCQWIATLNADESTEYNVAVTGRFTISRDNSGRSVYLQMDNLNSEDTAIYYCASLARKWSCHDSWGRGTQVTVSS
B6: NCI-CoV-S4A9 (VNAR)
VNAR: ARVDQTPRSVTKETGESLTINCVLRDASYALGSTCWYRKKSGSTNEESISKGGRYVETVNSGSKSFSLRINDLTVEDGGTYRCGVQSRWGAVPKLCSNYAACGDGTAVTVN
B7: NCI-CoV-CGF10 (VHH)
VHH: AVQLVESGGGLVQPGGSLRLSCAASGFTFSSYGMHWVRQAPGKGLERVAGINWDGSNSYYTETVKGRFTISRDNAKNTAYLQMNSLKPEDTAMYYCRTLILDSDCDPGSTYRYAWGQGTQVTVSS
B8: NCI-CoV-CL3H4 (VHH)
VHH: DVQLVESGGGAVKPGGSLTLTCTVQEGSRNCVGWFRQGSGKDRQAVAMINGNGGTTNYDDRVKGRFQISRDGSLVHLRMNDVKLGDTDIYYCRQGQTYDCWGGTWTDSGWGQGTQVTVSS
B9: NCI-CoV-S2A9 (VNAR)
VNAR: ARVDQTPRSVTKETGESLTINCVLRDASYALGRTCWYRKKSGSTNEESISKGGRYVETVNSGSKSFSLRINDLTVEDGGTYRCGVSTPWSCDYGPLCFYAACGDGTVVTVN

Tests used:
[1] = biological target: T1, SARS-CoV-2 spike trimer (40589-V08H4) (SARS-CoV-2, UniProt P0DTC2 14-1213); assay: ELISA, A450, nanobody at 10ug/mL, Spike Trimer coated at 2 ug/mL
T1 construct: extracellular domain

[2] = biological target: SARS-CoV-2 Gamma variant spike protein on pseudovirus (SARS-CoV-2, UniProt P0DTC2 14-1273); assay: cell-based or functional assay
[3] = biological target: SARS-CoV-2 Omicron BA.1 variant spike protein on pseudovirus (SARS-CoV-2); assay: cell-based or functional assay
[4] = biological target: SARS-CoV-2 Omicron BA.2 variant spike protein on pseudovirus (SARS-CoV-2); assay: cell-based or functional assay
[5] = biological target: SARS-CoV-2 Alpha variant spike protein on pseudovirus (SARS-CoV-2, UniProt P0DTC2 14-1273); assay: cell-based or functional assay
[6] = biological target: SARS-CoV-2 Omicron BA.4/BA.5 variant spike protein on pseudovirus (SARS-CoV-2); assay: cell-based or functional assay
[7] = biological target: SARS-CoV-2 Lambda variant spike protein on pseudovirus (SARS-CoV-2, UniProt P0DTC2 14-1273); assay: cell-based or functional assay

Row | Binder | ELISA (A450) at 10ug/mL [1] | other results
1 | B1 | 1.34 | 
2 | B2 | 0.14 | 
3 | B3 | 0.61 | 
4 | B4 | 0.66 | 
5 | B5 | 2.7 | 
6 | B6 | 1.43 | 
7 | B7 | 1.2 | 
8 | B8 | 0.3 | 
9 | B9 | 0.53 | IC50 for neutralizing pseudovirus [2]: 1800 nM; IC50 for neutralizing pseudovirus [3]: 2250 nM; IC50 for neutralizing pseudovirus [4]: 2250 nM; IC50 for neutralizing pseudovirus [5]: 1820 nM; IC50 for neutralizing pseudovirus [6]: 3730 nM; IC50 for neutralizing pseudovirus [7]: 4570 nM
